Source: the supplement of paper PMC7125110
± gives the standard error. For part of these data: This sample holds only a part of the variants without activity.

B1: glmS ribozyme (parent)
chain: AUAAAAGCGCCAGAACUACAGAAAUGUAGUUGACGAGGAGGAGGUUUAUCGAAUUUUCGGCGGAUGCCUCCAAA

Key:
Conditions in all cases: with glucosamine-6-phosphate
glucosamine-6-phosphate [1] = variants of: B1; assay: kcat; higher = faster cleavage; RNA array
Summary of the method: (§1)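 kobs was derived by fitting per-tile medians to one- or two-exponential decays after normalising signals to baseline and to non-cleaving reference variants. Those signals came from barcoded ribozyme variants transcribed in situ by E. coli RNA polymerase on sequenced MiSeq chips, followed through a hybridised Cy3 probe at 37 °C and imaged over ~14 h. Glucosamine-6-phosphate (40 μM to 10 mM) in HEPES/KCl/Mg(OAc)2 buffer was flowed in. Weighted Michaelis–Menten fits across concentrations then gave kcat and KM.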

glucosamine-6-phosphate [2] = variants of: B1; assay: KM; higher = weaker cofactor use; RNA array
Summary of the method: as §1

glucosamine-6-phosphate [3] = variants of: B1; assay: self-cleavage kobs at 40 uM GlcN6P; higher = faster cleavage; RNA array
Summary of the method: as §1

glucosamine-6-phosphate [4] = variants of: B1; assay: self-cleavage kobs at 160 uM GlcN6P; higher = faster cleavage; RNA array
Summary of the method: as §1

glucosamine-6-phosphate [5] = variants of: B1; assay: self-cleavage kobs at 640 uM GlcN6P; higher = faster cleavage; RNA array
Summary of the method: as §1

glucosamine-6-phosphate [6] = variants of: B1; assay: self-cleavage kobs at 2500 uM GlcN6P; higher = faster cleavage; RNA array
Summary of the method: as §1

glucosamine-6-phosphate [7] = variants of: B1; assay: self-cleavage kobs at 10000 uM GlcN6P; higher = faster cleavage; RNA array
Summary of the method: as §1

Variant	kcat (glucosamine-6-phosphate [1])	KM (glucosamine-6-phosphate [2])	self-cleavage kobs at 40 uM GlcN6P (glucosamine-6-phosphate [3])	self-cleavage kobs at 160 uM GlcN6P (glucosamine-6-phosphate [4])	self-cleavage kobs at 640 uM GlcN6P (glucosamine-6-phosphate [5])	self-cleavage kobs at 2500 uM GlcN6P (glucosamine-6-phosphate [6])	self-cleavage kobs at 10000 uM GlcN6P (glucosamine-6-phosphate [7])
AUAAAAGCGCCAGAUCUACAGAAAUGUAGUUGACGAGGAGGAGGUUUAUCGAAUUUUCGGCGGAUACCUCCAAA [A15U G66A]	0.00705 ± 0.002 s⁻¹	7800 ± 2800 µM	4.82e-05 ± 1.6e-05 s⁻¹	0.000124 ± 2.4e-05 s⁻¹	0.000781 ± 0.00023 s⁻¹	0.00183 ± 0.00057 s⁻¹	0.00391 ± 0.00065 s⁻¹
AUAAAAGCGCCAGAUCUACAGAAAUGUAGCUGACGAGGAGGAGGUUUAUCGAAUUUUCGGCGGAUGCCUCCAAA [A15U U30C]	0.000145 ± 1.2e-05 s⁻¹	2410 ± 450 µM	–	–	3.48e-05 ± 6.3e-06 s⁻¹	6.99e-05 ± 6.6e-06 s⁻¹	0.00012 ± 1.1e-05 s⁻¹
AUAAAAGCGCCAGAUCUACAGAAAUGUAGUUGACGAGGAGGAGGUUUAGCGAAUUUUCGGCGGAUGCCUCCAAA [A15U U49G]	9.5e-05 ± 7.9e-06 s⁻¹	1730 ± 470 µM	–	–	2.05e-05 ± 9.2e-06 s⁻¹	5.99e-05 ± 8e-06 s⁻¹	7.95e-05 ± 8.2e-06 s⁻¹
AUAAAAGCGCCAGAUCUACAGAAAUGUAGUAGACGAGGAGGAGGUUUAUCGAAUUUUCGGCGGAUGCCUCCAAA [A15U U31A]	0.00127 ± 0.00026 s⁻¹	2230 ± 880 µM	3.45e-05 ± 7.5e-06 s⁻¹	4.67e-05 ± 2e-05 s⁻¹	0.000289 ± 5.3e-05 s⁻¹	0.000874 ± 0.00015 s⁻¹	0.00101 ± 9.8e-05 s⁻¹
AUAAAAGCGCCAGAUCUACAGAAAUGUAGUGGACGAGGAGGAGGUUUAUCGAAUUUUCGGCGGAUGCCUCUAAA [A15U U31G C71U]	0.00048 ± 0.00012 s⁻¹	–	6.97e-05 ± 3.1e-05 s⁻¹	6.51e-05 ± 1.8e-05 s⁻¹	0.000238 ± 3.6e-05 s⁻¹	0.000267 ± 6.8e-05 s⁻¹	0.000517 ± 9.1e-05 s⁻¹
AUAAAAGCGCCAGAUCUACAGAAAUGUAGUUGACGAGGAGGAGGUUUAUCGAAAUUUCGGCGGAUGCCUCCAAA [A15U U54A]	0.00741 ± 0.001 s⁻¹	1360 ± 360 µM	–	0.00059 ± 0.00026 s⁻¹	0.00262 ± 0.00048 s⁻¹	0.00516 ± 0.0014 s⁻¹	0.00623 ± 0.0012 s⁻¹
AUAAAAGCGCCAGAUCUACAGAAAUGUAGUUGACGAGGAGGAGGUUUAUCGAAUUUUCUGCGGAUGCCUCCAAA [A15U G59U]	< 1e-05 s⁻¹	–	< 1e-05 s⁻¹	< 1e-05 s⁻¹	–	–	–
